Values quoted from earlier work in paper PMC11468230.

Experiments:
[1] = target: KV channel (Kv1.3) (Homo sapiens) (UniProt P22001)
IKCa1 (Homo sapiens) = IKCa1 (Homo sapiens) (UniProt O15554)
[2] = target: GLP-1 receptor (Homo sapiens) (UniProt P43220)
Kv1.3 (Homo sapiens) = Kv1.3 (Homo sapiens) (UniProt P22001)

Sequence of UniProt O15554 (O15554 whole entry): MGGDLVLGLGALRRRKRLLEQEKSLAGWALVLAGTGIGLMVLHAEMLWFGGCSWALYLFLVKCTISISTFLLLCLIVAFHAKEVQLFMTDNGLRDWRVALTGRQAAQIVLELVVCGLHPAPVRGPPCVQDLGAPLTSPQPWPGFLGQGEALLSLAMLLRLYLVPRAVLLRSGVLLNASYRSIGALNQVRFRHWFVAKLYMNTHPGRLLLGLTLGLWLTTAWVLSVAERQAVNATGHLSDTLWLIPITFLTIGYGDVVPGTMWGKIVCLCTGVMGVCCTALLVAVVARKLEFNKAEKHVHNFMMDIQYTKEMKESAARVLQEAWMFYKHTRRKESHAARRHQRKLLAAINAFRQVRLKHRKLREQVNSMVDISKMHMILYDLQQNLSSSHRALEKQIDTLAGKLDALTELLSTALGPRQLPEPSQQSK
Sequence of UniProt P43220 (P43220 24-463): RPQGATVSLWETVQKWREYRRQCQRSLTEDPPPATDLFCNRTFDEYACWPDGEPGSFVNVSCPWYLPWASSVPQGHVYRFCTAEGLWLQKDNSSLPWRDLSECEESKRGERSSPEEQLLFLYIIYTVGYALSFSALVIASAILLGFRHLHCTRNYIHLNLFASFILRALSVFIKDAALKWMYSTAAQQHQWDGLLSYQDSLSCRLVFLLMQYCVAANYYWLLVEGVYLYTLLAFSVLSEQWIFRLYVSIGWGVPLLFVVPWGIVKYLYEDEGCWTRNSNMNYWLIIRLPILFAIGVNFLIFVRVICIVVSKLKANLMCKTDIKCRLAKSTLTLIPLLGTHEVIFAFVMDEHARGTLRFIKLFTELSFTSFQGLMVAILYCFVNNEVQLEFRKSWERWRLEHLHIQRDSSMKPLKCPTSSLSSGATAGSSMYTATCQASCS

Charybdotoxin (from UniProt P13487)
Kd [1]: 3 nM | Kd (IKCa1 (Homo sapiens)): 5 nM

exendin-4 (from UniProt P26349)
Ki [2]: 0.46 nM

ShK (from UniProt P29187)
Kd (Kv1.3 (Homo sapiens)): 0.011 nM
